Test [1] has as its target T1, huIgG1 huCLL1 (human, UniProt Q5QGZ9 65-265, limits assumed).
T1 construct: not shown: human IgG1 part
T1 sequence: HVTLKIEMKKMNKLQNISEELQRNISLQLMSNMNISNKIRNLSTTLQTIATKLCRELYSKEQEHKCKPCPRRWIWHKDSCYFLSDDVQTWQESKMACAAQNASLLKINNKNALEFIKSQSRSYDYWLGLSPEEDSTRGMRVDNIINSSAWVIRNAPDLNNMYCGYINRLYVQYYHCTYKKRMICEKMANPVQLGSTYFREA
Kind of test: Octet BLI, mAb captured on FAB2G biosensor, antigen in solution; antigen huCLL1 fused to huIgG1 Fc. As to the method: (§1) Octet Off-Rate Ranking Assay: Alternate binding assay was conducted with the recombinant antibodies confirming specific binding to CLL1 without binding to CLEC12B. Briefly, purified mAbs were individually captured on FAB2G anti-human Fab biosensors. The mAb-captured biosensors were dipped in wells containing antigen and the binding response was measured. Biosensors were later dipped in buffer wells to observe the dissociation of bound antigen from captured mAb and were regenerated and similar binding kinetic assays were performed for subsequent antigens. The binding kinetics of fifteen mAbs were illustrated in Table 2.
Background: Biolayer interferometry detects binding as a change in optical thickness at a sensor tip.

The target in test [2] is T2, huCLEC12B (Acro Biosystems) (human, UniProt Q2HXU8 65-276, limits assumed).
T2 construct: Bought protein
T2 sequence (looked up): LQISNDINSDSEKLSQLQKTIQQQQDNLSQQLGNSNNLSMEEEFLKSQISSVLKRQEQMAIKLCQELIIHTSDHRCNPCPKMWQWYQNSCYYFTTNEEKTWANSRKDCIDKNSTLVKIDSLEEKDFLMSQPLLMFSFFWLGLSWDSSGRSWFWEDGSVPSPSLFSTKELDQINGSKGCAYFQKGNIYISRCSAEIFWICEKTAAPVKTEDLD
Kind of test: Octet BLI, mAb captured on FAB2G anti-human Fab biosensors. Here is the method: as §1

The target of test [3] is T1, huIgG1 huCLL1. Kind of test: Octet BLI, mAb captured on FAB2G biosensor, antigen in solution. As to the method:
as §1

Test [4] deals with T3, muIgG2a huCLL1 (human, UniProt Q5QGZ9 65-265, limits assumed).
T3 construct: It may be the same construct as muIgG2a monoFc huCLL1 (+) of the ELISA; also called huCLL1.mIgG2a; not shown: mouse IgG2a part
T3 sequence: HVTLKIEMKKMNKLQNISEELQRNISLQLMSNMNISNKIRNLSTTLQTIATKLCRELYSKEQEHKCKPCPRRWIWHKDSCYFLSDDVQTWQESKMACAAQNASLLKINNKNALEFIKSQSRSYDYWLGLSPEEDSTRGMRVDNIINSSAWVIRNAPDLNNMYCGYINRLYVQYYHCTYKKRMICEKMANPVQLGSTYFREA
The test is described as above. As to the method:
as §1

Test [5] has as its target T3, muIgG2a huCLL1. Kind of test: Octet BLI, mAb captured on FAB2G biosensor, antigen in solution; antigen huCLL1 fused to muIgG2a Fc. As to the method:
as §1

The target in test [6] is T4, muIgG2a monoFc huCLL1 (+) (human).
T4 construct: ELISA coating antigen
Kind of test: ELISA, plate coated with antigen 1 ug/mL; antibody 10.00 ug/mL in well. Here is the method: ELISA Validation: Antibodies identified by the Beacon screen were made recombinantly and validated for binding to CLL1. High-binding ELISA plate was coated with muIgG2a monoFc huCLL1 (+) (1 μg/mL) overnight at 4° C. After removal of the antigen, the wells were blocked with 2% BSA in 1×PBS for 1 hour. The BSA was then removed and the primary antibody was added to the wells in 1×PBS solution, incubated at RT for 1 hour. The wells were washed four times with 1×PBS. HRP conjugated secondary antibody was added in blocking solution, and was incubated at RT for 45 minutes. The wells were washed five times with 1×PBS. TMB substrate was added, followed by stop solution. The plates were read at 450 nm.
In general terms: In an ELISA, binding on a coated surface is turned into a signal by an enzyme label.

This note sets out measurements from patent US20250388680A1 (KITE PHARMA, published 2025).

Broadly, the Kd is the constant that tells how readily two partners part at equilibrium. Higher therefore signals a looser complex. The t½ is the time needed for the level to fall by half in the phase considered. Low values mean fast loss, high ones slow loss.

B1: D2AD89041-10444 (antibody, V domains shown)
VH: EVQLLESGGGLVQPGGSLRLSCAASGFTFNNYVMAWVRQVPGKGLEWVSGISGSGLITSYAASVKDRFTISRDNSNNTVYLQMKSLRAEDTAVYFCAKEPHVLLDDYMDVWGKGTTVTVSS
VL: EIVLTQSPATLSLSPGERATLSCGASQSVTSSYLAWYQQKPGLAPRLLIYDASNRATGIPDRFSGSGSGTDFTLTISRLEPEDFAVYYCQQYGRSLTFGGGTKVEIK
notes: also called mAb_049
In the case of B1, the values for the Kd in the test with huIgG1 huCLL1 [1] and with muIgG2a huCLL1 [5] were 1120 nM and 3.46 nM, respectively. The binding result in test [2] is “no binding”. In addition, the “t½” value in the test with huIgG1 huCLL1 [3] stood at 0 min; with muIgG2a huCLL1 [4], 5.4 min. In addition, the “OD 450 nm” value in test [6] came out at 0.205 OD.

B2: D2D88607-14083 (antibody, V domains shown)
VH: EVQLLESGGDLVQPGGSLRLSCAASGFTFSSYAMNWVRQAPGKGLEWVSAISGSGVFTYYADSVKGRFTISRDNSENTLYLQMNSLRAEDTAVYYCAKEMQQLIQGDLFDIWGQGTMVTVSS
VL: EIVLTQSPATLSLSPGERATLSCGASQSVSNNYLAWYQQKPGLAPRLLIYDASSRATGIPDRFSGSGSGTDFTLTISRLEPEDFAVYYCQQYGSSHTFGQGTKLEIK
notes: also called mAb_017
With B2, the binding result in test [2] is given as “no binding”. The Kd in the test with huIgG1 huCLL1 [3] came to 3.19 nM; in the test with muIgG2a huCLL1 [4] it was 0.374 nM. The figures for the “t½” value in the test with huIgG1 huCLL1 [3] and with muIgG2a huCLL1 [4] were 18.6 min and 116 min, respectively.

B3: D2D88607-9226 (antibody, V domains shown)
VH: QVQLQQWGAGLLKPSETLSLTCAVYGGSFSGYYWSWIRQPPGKGLEWIGEFNHSGGPNYNPSLKSRVTISTDTSNNQFSLKLSSVTAADTAVYYCARGTTGNYYYYMDVWGKGTTVTVSS
VL: AIQMTQSPSSLSASVGDRVTITCRASQGIRNDLGWYQQKPGKAPKLLIYAASSLQSGVPSRFSGSGSGTDFTLTISSLQPEDFATYYCLQDYIYPPTFGPGTKLEIK
notes: also called mAb_023
For the molecule B3, the binding result in test [2] is “no binding”. In the test with huIgG1 huCLL1 [3], the Kd worked out at 2.28 nM and the “t½” value amounted to 16.5 min. Also, in the test with muIgG2a huCLL1 [4], binding was put at a Kd of 0.347 nM and the “t½” value was determined as 64.1 min. Besides, the “OD 450 nm” value in test [6] is 1.75 OD.

B4: D2AD88607-7048 (antibody, V domains shown)
VH: EVQLVESGGGLVQPGGSLRLSCAASGFTFSSYDMHWVRQATGKGLEWVSAIGTAGDKYYLASVKGRFTISRENAKNSLYLQMNSLRAGDTAVYYCVRDSLTGPTVTPYMDVWGKGTTVTVSS
VL: EIVLTQSPDFQSVTPKEKVTITCRASQSIGSGLHWYQQKPDQSPKLLIIYASQSISGVPSRFSGSGSGTDFTLTINSLEAEDAAAYYCHQSSSLPYTFGQGTKLEIK
notes: also called mAb_042
Consider B4, for which the binding result in test [2] is recorded as “no binding”. Moreover, in the test with huIgG1 huCLL1 [3], the affinity, expressed as Kd, was 81.1 nM and the “t½” value amounted to 0.3 min. For the same molecule, in the test with muIgG2a huCLL1 [4], the equilibrium dissociation constant (Kd) is 2.98 nM and the “t½” value worked out at 7.7 min. Also, the “OD 450 nm” value in test [6] was 1.57 OD.

B5: D2AD88607-5141 (antibody, V domains shown)
VH: QVQLVESGGGVVQPGRSLRLSCAASGFTFSSYGMHWVRQAPGKGLEWVAIISYDGSDKYYADSVKGRFTISRDNSKNTLYLQMNSLRAEDTAVYYCARNYNYYMDVWGKGTTVTVSS
VL: EIVMTQSPATLSLSPGERATLSCRASQSVRSSYLSWYQQKPGQAPRLLIYGTSTRATGIPARFSGSGSGTDFTLTISSLQPEDFAVYYCQQDYNLPLTFGGGTKVEIK
notes: also called mAb_038
Turning to B5, the binding result in test [2] is listed as “no binding”. In the test with huIgG1 huCLL1 [3], the Kd amounted to 19.9 nM and the “t½” value came to 2.3 min. In addition, in the test with muIgG2a huCLL1 [4], the Kd came to 0.766 nM and the “t½” value was determined as 54.4 min. Besides, the “OD 450 nm” value in test [6] came out at 2 OD.

B6: D2D88607-15321 (antibody, V domains shown)
VH: EVQLVESGGGLVQPGGSLRLSCAASGFTFSFNDMNWVRQAPGKGLEWVSTISGSGGSTYYADSVKGRFTISRDNSKNTLYLQMNSLRAEDTAVYYCAVTGLYYYYYMDVWGKGTTVTVSS
VL: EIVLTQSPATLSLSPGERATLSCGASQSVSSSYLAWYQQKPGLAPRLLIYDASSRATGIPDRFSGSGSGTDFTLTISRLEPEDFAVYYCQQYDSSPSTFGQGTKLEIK
notes: also called mAb_018
On to B6, for which the binding result in test [2] is recorded as “no binding”. For the same molecule, in the test with huIgG1 huCLL1 [3], the affinity, expressed as Kd, was 29.4 nM and the “t½” value is 9.1 min. Moreover, in the test with muIgG2a huCLL1 [4], the dissociation constant Kd was 4.29 nM and the “t½” value turned out to be 83.2 min. Moreover, the “OD 450 nm” value in test [6] was 1.38 OD.
